# Measurements: PMC3839580 (Journal of the American Chemical Society, 2013)
# “And” between values parts separate entries of the source, which are not always exact repeats. Identical values can stand only once.
# Columns and labels:
# [1] = Size exclusion chromatography of DMPC-based peptide nanoparticles; format: physicochemical; conditions: construct 300 μM, PBS, overnight, Superdex 200, standard curve of four globular proteins
# [2] = thought: two apoA-I molecules (10 helices/molecule) reside in discoidal HDL particles; cited from earlier work
# [3] = tested on: plasma total cholesterol; conditions: cited from earlier work
# [4] = cited from earlier work
substance,measurement,setting,value
"apoA-I: Apolipoprotein A-I, the primary structural protein within HDL particles",SEC Stokes diameter,[1],15 nm and 10 nm
same,helices per particle (value in parentheses),[2],20
same,"reduction in plasma cholesterol levels, in words",[3],neither apoA-I nor rHDLs cause significant reduction
same,plasma half-life in mice,[4],11 h
